Laboratory results published in patent US20220169720.

Key:
[1] = system: Rubicon (RUN domain protein as Beclin-1 interacting and cysteine-rich containing), wild-type
[2] = system: Rubicon mutant's 117-189 amino acids (phosphor-null mutants, single serine/threonine substituted with alanine)

Sequence of Rubicon (RUN domain protein as Beclin-1 interacting and cysteine-rich containing), wild-type (chain, as listed by the source): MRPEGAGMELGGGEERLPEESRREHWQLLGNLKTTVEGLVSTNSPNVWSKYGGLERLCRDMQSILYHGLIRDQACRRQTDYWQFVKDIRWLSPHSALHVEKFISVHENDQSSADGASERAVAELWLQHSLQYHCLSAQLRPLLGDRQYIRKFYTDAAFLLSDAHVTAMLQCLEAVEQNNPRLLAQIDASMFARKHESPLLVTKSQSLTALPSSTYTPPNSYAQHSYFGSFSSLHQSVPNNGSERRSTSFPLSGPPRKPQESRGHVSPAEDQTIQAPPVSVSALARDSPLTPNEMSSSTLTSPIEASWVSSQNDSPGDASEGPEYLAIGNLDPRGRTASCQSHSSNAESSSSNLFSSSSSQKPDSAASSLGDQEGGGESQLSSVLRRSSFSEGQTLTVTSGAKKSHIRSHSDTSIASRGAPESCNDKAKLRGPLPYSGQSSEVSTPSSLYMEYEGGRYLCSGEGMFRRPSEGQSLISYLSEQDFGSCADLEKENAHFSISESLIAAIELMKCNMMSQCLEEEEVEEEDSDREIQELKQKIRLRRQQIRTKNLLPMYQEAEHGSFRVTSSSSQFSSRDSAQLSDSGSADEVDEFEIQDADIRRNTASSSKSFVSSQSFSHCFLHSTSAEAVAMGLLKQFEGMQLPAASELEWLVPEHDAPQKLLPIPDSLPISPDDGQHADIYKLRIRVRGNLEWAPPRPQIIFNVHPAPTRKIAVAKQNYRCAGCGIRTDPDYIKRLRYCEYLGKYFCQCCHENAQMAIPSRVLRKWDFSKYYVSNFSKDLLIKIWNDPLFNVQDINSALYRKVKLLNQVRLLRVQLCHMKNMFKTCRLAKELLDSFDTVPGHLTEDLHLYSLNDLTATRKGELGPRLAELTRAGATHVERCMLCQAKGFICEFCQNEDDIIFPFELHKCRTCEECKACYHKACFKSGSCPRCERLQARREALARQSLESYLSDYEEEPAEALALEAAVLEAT

With “Leucine-rich repeat kinase 2 (LRRK2), wild-type” as the substance, how does the “extent of Rubicon phosphorylation by LRRK2 kinase (kinase assay with wild-type or phosphor-null mutant Rubicon as substrate)” value [1] read?
The value was “determined T166 and S189 as the consensus LRRK2-specific phosphosites”.

And the “pT166-Rubicon by ELISA in human neurons transiently over-expressing wild-type (WT) LRRK2” value [1]?
Its value is 12% and 26% increase in pT166-Rubicon respectively compared to control.

What about the “pT166-Rubicon by ELISA in human neurons with endogenous LRRK2 knocked down” value [1] of the same substance?
The value was 32.4% decrease in pT166-Rubicon compared to control.

And the “amount of generated ADP as a by-product of LRRK2 kinase activity” value [2]?
The value was “Rubicon mutant's 117-189 amino acids significantly decreased LRRK2 kinase activity”.

mutant LRRK2-G2019S was tested. Which “pT166-Rubicon by ELISA in human neurons transiently over-expressing mutant LRRK2-G2019S” value [1] did it give?
The value was 12% and 26% increase in pT166-Rubicon respectively compared to control.
